One sequence from US20200369727A1, “COMPOSITION AND METHOD FOR TREATING A PATIENT HAVING LIVER CIRRHOSIS” (priority 2019, published 2020) can be followed below.

The target in this experiment is T1, NS3 of SEQ ID NO: 3 (HCV NS3 genotype 4a) (Hepatitis C virus genotype 4a, UniProt O39929).
T1 construct: T7 tag (N); 6-His tag (C); made in house; host or cells: E. coli Rosette (DE3) pLysS
The experiment can be described thus: Differential static light scattering (DSLS), aggregation temperature of NS3 with peptide. It is filed as binding. As to conditions: NS3 of SEQ ID NO: 3 with peptide in 1:2 ratio, room temperature, two hours, shaking. The protocol:
The binding of SEQ ID NO: 4 and its variants of SEQ ID NO: 6-20 to the NS3 of SEQ ID NO: 3 were determined by differential static light scattering method using Stargazer-2™ (Harbinger Biotechnology and Engineering Corporation, Toronto, Canada). The method assesses protein stability by monitoring aggregate formation upon gradual increase of temperatures. NS3 domain of SEQ ID NO: 3 stability upon binding to NS4A of SEQ ID NO: 4 was measured by monitoring denatured protein aggregation upon increasing temperature from 25 to 85° C. in 0.5° C. increments at 600 nm. […] The mixture and control were incubated at room temperature with gentle shaking for specified time. […]. Afterwards, 10 μL of the mixture was transferred into a clear bottom Nunc 384-well plate and covered by 10 μL paraffin oil to minimize evaporation. Protein aggregation was monitored by tracking the change in scattered light that was detected by a CCD camera. Snapshot images of the plate were taken every 0.5° C. The pixel intensities in a preselected region of each well were integrated using image analysis software to generate a value representative of the total amount of scattered light in that region. […] Aggregation was monitored and analyzed to assess the effect of NS4A of SEQ ID NO: 4 and its synthetic analogues of SEQ ID NO: 6-20 on the stability of the NS3 as an indicator of binding. […]

On to “KKGSVVIVGRIVLSGKK [SEQ ID NO: 4, reference compound]”, for which the “ΔTagg (Tagg shift, aggregation temperature)” value came to 2.83 °C.
